A word on the Kd: it is the concentration at which binding is half-saturated.

Experiment [1] relates to EBC-1 cells. The experiment in a line: Cell cycle arrest assay. It is filed as cell-based, human. The settings on record: 10 nM, 24 hours. How it is done: Cell Cycle Arrest Assay. Briefly, EBC-1 cells were cultured in standard culture media (Eagle's minimum essential medium+10% fetal bovine serum) and conditions recommended by the vendor. Cells were plated at a density of 2×10^4 cells per well and incubated at 37° C. for 24 hours. […] Plates were incubated for 24 hours at 37° C. At the end of the culture period, test articles were removed from the plate. Cells were trypsinized, washed, and fixed in 70% ethanol for 30 minutes. Cells were washed, stained with propidium iodide staining using a cell cycle analysis kit (Abcam), and assessed by flow cytometry.

Experiment [2] relates to EBC-1 cells. The experiment in a line: ADCC effector function with PBMCs. In kind it is cell-based, human. Conditions: PBMCs from all donors, vs IgG1 isotype control.
A further experiment concerns NCI-H441 cells. The experiment in a line: Cell proliferation assay (CellTiter-Glo). It is filed as cell-based, human. Conditions: 10 nM, 4 days, serum starved.
Experiment [3] concerns EBC-1 cells. The experiment in a line: ADCP effector function. In kind it is cell-based, human. The settings on record: vs IgG1 isotype control.
Experiment [4] deals with EBC-1 cells. The experiment in a line: Complement dependent cytotoxic assay. Conditions: 30% human complement. It is filed as cell-based. How it is done:
Complement Dependent Cytotoxic Assay. EBC-1 cells were incubated with serially diluted test articles: Q397-noV205C or non-binding antibody. For the technical control, Raji cells, which expresses CD20 on the cell surface, were incubated with serially diluted test articles: anti-CD20 (research grade recombinant anti-CD20 rituximab, catalog number A2009) or non-binding antibody (human IgG1 isotype control antibody, catalog number BE0297). Briefly, EBC-1 and Raji cells were added to a 96-well U-bottom plate at a density of 2.5×10^4 cells/well. Serially diluted test articles were added to the plate. The starting concentration of all test articles was 100 nM. A 3-fold dilution was performed for 9 concentration points and added to the test plate in duplicates. The plate was then incubated for 30 minutes at 37° C. At the end of the culture period, either heat inactivated or pooled human complement sera at a final concentration of 30% diluted in culture media (RPMI) was added to the plate. The plate was then incubated at 37 °C for two hours and cell lysis was assessed using CellTiter-Glo.

Experiment [5] concerns phosphorylation of ERK1/2 and Akt1 in NCI-H441 cells. Kind of experiment: Cell signaling assay (ELISA). In kind it is cell-based, human. Conditions: 10 μg/mL, 30 minutes. How it is done:
Cell Signaling Assay. Briefly: NCI-H441 cells were cultured in standard culture media (RPMI-1640 Medium+10% fetal bovine serum) using conditions recommended by the vendor. For the cell signaling assay, NCI-H441 cells were seeded in 6-well plates at 300,000 cells per well in culture media. The next day, the cells were washed with serum-free medium twice and then replenished with 3 mL RPMI+0.2% fetal bovine serum.
The following day, cells were treated with 50 ng/ml HGF or 10 μg/mL of test articles and incubated for 30 minutes at 37° C. Following the 30-minute stimulation, the treatment medium was aspirated, the cells were washed 2 times in an excess volume of ice-cold phosphate buffered saline and collected by cell scraping on ice in 250 μL ice-cold lysis buffer per well and transferred to pre-chilled tubes. […] Lysates were thawed on ice for 1 hour with occasional vortexing, and protein concentrations were measured using the BCA protein assay according to the manufacturer's instructions. Lysates were diluted in lysis buffer to final concentration 0.5 mg/mL, and 100 μL of each sample was assessed using commercially available ELISA kits to detect total ERK1/2 and Akt1 and their phosphorylated forms. ELISAs were performed and analyzed according to the manufacturer's instructions. […]
Background: In an ELISA, binding on a coated surface is turned into a signal by an enzyme label.

Experiment [6] concerns the target human cMET on cMET+ human cancer cells (human, UniProt P08581 25-1390). The experiment in a line: cell-based or functional assay.
The next experiment concerns the target rat cMET (rat, UniProt P97523 25-935, limits assumed). The experiment in a line: ELISA or BLI (the filing does not say which).
The target in the next experiment is mouse cMET (mouse, UniProt P16056 25-931, limits assumed). The experiment in a line: ELISA or BLI (the filing does not say which).
For another experiment, the target named is recombinant human cMET (human, UniProt P08581 25-932, limits assumed). Kind of experiment: BLI (Octet), antibody captured on AHC sensor, recombinant human cMET as analyte, pH 7.4; BLI, recombinant human cMET as analyte, pH 7.4. (In general: Biolayer interferometry detects binding as a change in optical thickness at a sensor tip.)
Experiment [7] addresses recombinant cynomolgus monkey cMET (cynomolgus monkey, UniProt A0A2K5UM36 25-932). The experiment in a line: BLI (Octet), antibody captured on AHC sensor, recombinant cynomolgus monkey cMET as analyte, pH 7.4.

“Also recorded” adds a separate entry of the source. Non-standard residues stand in square brackets, D forms with d. Residues, ends and D or L forms follow the SMILES beside them. *: point of attachment. Dolaproine = CO[C@@H]([C@@H]1CCCN1)[C@@H](C)C(=O)O; Dil = CC[C@H](C)[C@H](NC)[C@@H](CC(=O)O)OC; X1 = C[C@@H](N*)[C@@H](O)c1ccccc1; NMeV = CN[C@H](C(=O)O)C(C)C

Chain of mouse cMET (P16056 25-931 limits assumed): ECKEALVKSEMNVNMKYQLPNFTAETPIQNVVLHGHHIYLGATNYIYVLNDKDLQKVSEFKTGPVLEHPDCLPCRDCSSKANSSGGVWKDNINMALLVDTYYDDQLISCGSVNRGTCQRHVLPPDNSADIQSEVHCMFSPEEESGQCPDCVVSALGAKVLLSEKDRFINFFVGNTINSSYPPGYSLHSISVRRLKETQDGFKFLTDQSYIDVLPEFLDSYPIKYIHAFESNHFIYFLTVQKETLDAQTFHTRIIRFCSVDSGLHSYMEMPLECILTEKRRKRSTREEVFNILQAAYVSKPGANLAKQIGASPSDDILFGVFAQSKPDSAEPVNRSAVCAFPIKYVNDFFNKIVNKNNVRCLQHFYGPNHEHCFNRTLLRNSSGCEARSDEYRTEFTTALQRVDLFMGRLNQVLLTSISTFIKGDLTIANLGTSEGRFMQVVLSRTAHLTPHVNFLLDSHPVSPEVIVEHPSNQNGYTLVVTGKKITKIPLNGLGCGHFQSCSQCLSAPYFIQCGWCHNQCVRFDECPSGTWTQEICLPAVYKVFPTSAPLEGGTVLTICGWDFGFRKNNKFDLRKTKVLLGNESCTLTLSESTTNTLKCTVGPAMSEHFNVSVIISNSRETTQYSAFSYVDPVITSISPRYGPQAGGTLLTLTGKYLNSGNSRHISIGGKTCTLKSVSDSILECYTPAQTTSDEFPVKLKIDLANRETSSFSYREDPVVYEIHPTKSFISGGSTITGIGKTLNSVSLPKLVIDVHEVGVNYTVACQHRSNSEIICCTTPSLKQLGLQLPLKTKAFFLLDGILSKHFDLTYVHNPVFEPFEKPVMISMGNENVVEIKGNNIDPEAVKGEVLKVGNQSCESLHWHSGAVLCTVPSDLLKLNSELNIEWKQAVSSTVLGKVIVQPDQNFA
Chain of rat cMET (P97523 25-935 limits assumed): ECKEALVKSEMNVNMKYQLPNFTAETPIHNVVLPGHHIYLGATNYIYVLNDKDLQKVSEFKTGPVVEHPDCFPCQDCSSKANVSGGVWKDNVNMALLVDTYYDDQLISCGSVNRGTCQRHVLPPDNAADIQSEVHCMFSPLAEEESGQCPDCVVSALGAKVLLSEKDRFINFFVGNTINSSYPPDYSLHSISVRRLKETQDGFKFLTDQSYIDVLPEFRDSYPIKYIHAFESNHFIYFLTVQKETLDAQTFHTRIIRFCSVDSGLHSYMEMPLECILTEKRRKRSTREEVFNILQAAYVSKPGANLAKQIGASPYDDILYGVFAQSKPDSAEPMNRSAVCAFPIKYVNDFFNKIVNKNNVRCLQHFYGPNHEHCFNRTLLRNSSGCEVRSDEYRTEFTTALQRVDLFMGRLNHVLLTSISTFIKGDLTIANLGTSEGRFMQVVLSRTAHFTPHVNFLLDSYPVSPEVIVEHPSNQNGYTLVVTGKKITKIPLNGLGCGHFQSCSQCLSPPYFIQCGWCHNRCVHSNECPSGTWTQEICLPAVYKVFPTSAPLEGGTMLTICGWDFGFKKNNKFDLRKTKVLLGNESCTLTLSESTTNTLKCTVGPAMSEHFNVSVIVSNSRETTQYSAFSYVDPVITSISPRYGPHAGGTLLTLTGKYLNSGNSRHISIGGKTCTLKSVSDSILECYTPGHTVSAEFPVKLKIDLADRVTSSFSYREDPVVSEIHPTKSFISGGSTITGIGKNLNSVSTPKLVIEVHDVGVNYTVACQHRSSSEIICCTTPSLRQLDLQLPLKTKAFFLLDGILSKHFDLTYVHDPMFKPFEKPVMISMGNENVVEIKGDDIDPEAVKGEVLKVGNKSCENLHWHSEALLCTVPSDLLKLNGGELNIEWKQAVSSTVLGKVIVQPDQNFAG
Chain of recombinant cynomolgus monkey cMET (A0A2K5UM36 entry or part of it limits assumed): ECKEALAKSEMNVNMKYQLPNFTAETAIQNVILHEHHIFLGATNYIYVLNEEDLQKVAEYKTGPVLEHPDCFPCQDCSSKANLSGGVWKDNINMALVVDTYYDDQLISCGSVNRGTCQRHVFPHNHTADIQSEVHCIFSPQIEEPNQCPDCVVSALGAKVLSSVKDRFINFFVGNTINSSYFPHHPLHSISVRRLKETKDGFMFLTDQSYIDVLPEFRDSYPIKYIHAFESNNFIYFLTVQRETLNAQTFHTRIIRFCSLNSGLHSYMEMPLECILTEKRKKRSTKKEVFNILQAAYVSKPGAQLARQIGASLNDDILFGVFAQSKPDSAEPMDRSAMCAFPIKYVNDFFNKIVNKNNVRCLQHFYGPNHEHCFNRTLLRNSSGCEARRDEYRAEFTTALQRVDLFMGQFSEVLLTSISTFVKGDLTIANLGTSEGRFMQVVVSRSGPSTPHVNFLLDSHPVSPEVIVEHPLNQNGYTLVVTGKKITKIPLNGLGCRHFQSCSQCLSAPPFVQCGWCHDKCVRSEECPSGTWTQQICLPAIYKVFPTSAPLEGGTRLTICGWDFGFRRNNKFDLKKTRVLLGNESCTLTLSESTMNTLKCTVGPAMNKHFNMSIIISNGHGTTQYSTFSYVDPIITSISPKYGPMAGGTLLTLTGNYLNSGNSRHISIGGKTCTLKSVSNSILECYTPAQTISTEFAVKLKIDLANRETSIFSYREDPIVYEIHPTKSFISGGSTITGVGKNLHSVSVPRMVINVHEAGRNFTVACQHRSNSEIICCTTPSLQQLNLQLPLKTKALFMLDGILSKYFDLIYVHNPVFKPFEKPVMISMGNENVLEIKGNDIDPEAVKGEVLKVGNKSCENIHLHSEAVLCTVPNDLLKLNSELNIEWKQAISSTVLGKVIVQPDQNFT
Chain of human cMET on cMET+ human cancer cells (P08581 25-1390): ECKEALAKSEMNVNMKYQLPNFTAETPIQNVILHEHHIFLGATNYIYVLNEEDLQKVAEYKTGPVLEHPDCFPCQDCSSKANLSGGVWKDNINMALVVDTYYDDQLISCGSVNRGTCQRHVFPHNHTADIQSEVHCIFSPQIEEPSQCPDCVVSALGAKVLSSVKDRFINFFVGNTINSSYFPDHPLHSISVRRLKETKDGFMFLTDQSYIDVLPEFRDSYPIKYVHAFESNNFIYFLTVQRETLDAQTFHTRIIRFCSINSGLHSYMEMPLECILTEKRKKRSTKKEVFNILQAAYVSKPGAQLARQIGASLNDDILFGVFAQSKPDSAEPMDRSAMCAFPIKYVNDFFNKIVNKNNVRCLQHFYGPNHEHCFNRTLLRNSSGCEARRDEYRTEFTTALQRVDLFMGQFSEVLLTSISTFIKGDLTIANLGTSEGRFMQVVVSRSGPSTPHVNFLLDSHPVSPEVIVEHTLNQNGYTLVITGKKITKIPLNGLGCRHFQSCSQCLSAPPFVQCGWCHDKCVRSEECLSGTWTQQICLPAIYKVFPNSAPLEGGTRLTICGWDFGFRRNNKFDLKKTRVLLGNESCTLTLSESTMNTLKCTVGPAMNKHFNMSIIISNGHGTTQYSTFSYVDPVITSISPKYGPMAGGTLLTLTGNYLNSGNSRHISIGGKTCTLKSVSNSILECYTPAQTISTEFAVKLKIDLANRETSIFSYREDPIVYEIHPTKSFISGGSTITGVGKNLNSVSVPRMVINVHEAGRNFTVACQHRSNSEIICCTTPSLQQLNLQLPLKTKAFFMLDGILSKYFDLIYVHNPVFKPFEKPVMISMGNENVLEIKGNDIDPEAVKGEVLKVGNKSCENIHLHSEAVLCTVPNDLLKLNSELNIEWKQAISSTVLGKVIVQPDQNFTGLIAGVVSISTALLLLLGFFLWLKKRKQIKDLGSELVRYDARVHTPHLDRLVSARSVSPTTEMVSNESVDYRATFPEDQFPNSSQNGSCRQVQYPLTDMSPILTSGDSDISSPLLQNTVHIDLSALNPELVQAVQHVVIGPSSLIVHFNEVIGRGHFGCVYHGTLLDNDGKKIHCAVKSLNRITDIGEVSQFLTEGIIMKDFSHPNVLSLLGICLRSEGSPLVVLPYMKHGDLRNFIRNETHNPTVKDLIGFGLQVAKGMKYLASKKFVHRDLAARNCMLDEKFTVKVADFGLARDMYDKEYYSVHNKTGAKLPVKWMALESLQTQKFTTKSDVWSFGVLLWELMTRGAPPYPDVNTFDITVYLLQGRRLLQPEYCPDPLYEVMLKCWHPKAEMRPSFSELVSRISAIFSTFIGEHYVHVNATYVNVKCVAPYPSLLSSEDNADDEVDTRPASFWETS
Chain of recombinant human cMET (P08581 25-932 limits assumed): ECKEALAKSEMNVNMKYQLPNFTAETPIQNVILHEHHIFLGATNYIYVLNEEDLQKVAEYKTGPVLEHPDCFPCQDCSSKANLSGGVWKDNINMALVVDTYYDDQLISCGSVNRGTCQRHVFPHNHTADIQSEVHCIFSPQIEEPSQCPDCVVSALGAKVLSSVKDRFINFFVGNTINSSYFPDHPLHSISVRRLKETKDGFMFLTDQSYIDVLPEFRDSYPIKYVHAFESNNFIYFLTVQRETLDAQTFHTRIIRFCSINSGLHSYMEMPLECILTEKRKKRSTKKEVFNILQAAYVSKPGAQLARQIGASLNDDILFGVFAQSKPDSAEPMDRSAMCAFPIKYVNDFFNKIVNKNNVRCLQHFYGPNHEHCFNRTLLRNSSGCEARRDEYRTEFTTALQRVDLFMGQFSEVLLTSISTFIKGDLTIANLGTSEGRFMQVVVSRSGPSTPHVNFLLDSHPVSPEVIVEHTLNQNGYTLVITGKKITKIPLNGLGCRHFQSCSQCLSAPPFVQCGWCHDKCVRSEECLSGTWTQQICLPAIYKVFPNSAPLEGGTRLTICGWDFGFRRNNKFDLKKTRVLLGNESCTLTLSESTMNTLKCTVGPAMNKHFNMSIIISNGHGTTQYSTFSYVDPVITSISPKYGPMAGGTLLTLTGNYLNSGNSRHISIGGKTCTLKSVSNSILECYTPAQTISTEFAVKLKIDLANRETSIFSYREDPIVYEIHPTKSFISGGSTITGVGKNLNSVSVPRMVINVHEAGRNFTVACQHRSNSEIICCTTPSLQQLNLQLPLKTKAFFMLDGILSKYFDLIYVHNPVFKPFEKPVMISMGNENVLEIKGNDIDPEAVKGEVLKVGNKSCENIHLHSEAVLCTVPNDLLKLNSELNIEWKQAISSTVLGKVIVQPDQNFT

`CC[C@H](C)[C@@H]([C@@H](CC(=O)N1CCC[C@H]1[C@H](OC)[C@@H](C)C(=O)N[C@H](C)[C@@H](O)c1ccccc1)OC)N(C)C(=O)[C@@H](NC(=O)[C@@H](NC)C(C)C)C(C)C` [MMAE, monomethyl auristatin E] (H-[NMeV]V[Dil][Dolaproine]-X1): the “percentage of cells in G2-M phase” value in the experiment on EBC-1 cells [1] was determined as 68.6%.
Consider “Q397-noV205C: Anti-cMET antibody of MYTX-011 without the V205C substitution; SEQ ID NO: 75 and SEQ ID NO: 81”, for which the ADCC activity entry in the experiment with EBC-1 cells [2] is on record as “minimal to no; also recorded: Minimal ADCC activity”. The “proliferation of cMET+ NCI-H441 cells” value with NCI-H441 cells is “did not increase”. In addition, in the experiment with EBC-1 cells [3], the ADCP activity entry is “minimal to no; also recorded: no ADCP activity”. In addition, the “CDC activity (EBC-1 cell lysis)” value in the experiment with EBC-1 cells [4] is recorded as “minimal to no; also recorded: did not induce EBC-1 cell lysis”. Besides, the “phosphorylation of ERK1/2 or Akt1” value in [5] was “minimal phosphorylation”.

B1: MYTX-011 mAb (antibody, V domains shown)
VH: QVQLVQSGAEVKKPGASVKVSCKASGYTFTDYYMHWVRQAPGQGLEWMGRVNPNRRGTTYNQKFEGRVTMTTDTSTSTAYMELRSLRSDDTAVYYCARANWLDYWGQGTTVTVSS
VL: DIQMTQSPSSLSASVGDRVTITCSVSSSVSSIHLHWYQQKPGKAPKLLIYHTSNLASGVPSRFSGSGSGTDFTLTISSLQPEDFATYYCQVYSGYPLTFGGGTKVEIKR
notes: also called Q397
As for B1, in [6], the “uptake of pHrodo-conjugated mAb in NCI-H1975 cells by live cell imaging, at 24 hours, over the parent mAb” value came to 3 fold. Moreover, the binding result with rat cMET and with mouse cMET was “no binding” in each case. Further, the results for the dissociation constant (Kd) (with recombinant human cMET; in experiment [7]) were 4 nM and 9.44 nM, respectively.

B2: MYTX-011 (antibody, IgG1, V domains shown)
VH: QVQLVQSGAEVKKPGASVKVSCKASGYTFTDYYMHWVRQAPGQGLEWMGRVNPNRRGTTYNQKFEGRVTMTTDTSTSTAYMELRSLRSDDTAVYYCARANWLDYWGQGTTVTVSS
VL: DIQMTQSPSSLSASVGDRVTITCSVSSSVSSIHLHWYQQKPGKAPKLLIYHTSNLASGVPSRFSGSGSGTDFTLTISSLQPEDFATYYCQVYSGYPLTFGGGTKVEIKR
modifications: vcMMAE (mc-vc-PAB-MMAE) linked to the engineered cysteine at position 98 of the light chain constant domain ("V205C"); DAR 2
notes: Antibody drug conjugate: humanized triple hinge IgG1 kappa antibody Q397 conjugated site-specifically to vcMMAE, drug to antibody ratio 2; also called anti-cMET pH-ADC; pH-ADC
Take B2: the binding result in the experiment with rat cMET and with mouse cMET was “no binding” throughout.

Source of the values: patent publication US20240197906A1, “ANTI-cMET ANTIBODY DRUG CONJUGATES AND [sequence] USES THEREOF” (Mythic Therapeutics, Inc., priority 2022, published 2024).
